We go through 3 molecules from US20220313840A1 (ACADEMIA SINICA, published 2022).

The target in test [1] is T1, endogenous EGFR on human carcinoma cell lines (human, UniProt P00533 25-1210).
T1 construct: whole, on cells; EGFR expression of the cell lines was checked by Western blotting; also called endogenous cellular EGFR; EGFR on FaDu and Ca9-22 cells
The test is described as follows: cell ELISA on human carcinoma cell lines with endogenous EGFR.

The target in test [2] is T1, endogenous EGFR on human carcinoma cell …. The test is described as follows: confocal microscopy of FaDu and Ca9-22 cells, anti-FLAG detection. The procedure:
We produced soluble scFv from EGFR-PC10 and designated it as EGFR-s10. Target binding and internalization are essential requirements of LTL-targeting moieties. We investigated these features of EGFR-s10 in SCCHN cancer cell lines. FaDu cells and Ca9-22 cells were separately incubated with EGFR-sl0 at 4° C. or 37° C. for 30 min and compared with isotypic IgG controls. EGFR-sl0 bound to the cell membrane of FaDu and Ca9-22 cells at 4° C. […] (FIGS. 3A-B).

For test [3] the target is unchanged. The test is described as follows: cell uptake, including EGFR-knockdown cells. The procedure: To evaluate whether internalization and targeting were preserved after EGFR-s10 ligation to liposomes, we tested EGFR-s10-conjugated liposomal SRB in the SCCHN cell lines FaDu and Ca9-22 cells at 37° C. for 30 min (FIGS. 3C-D). No compromise of internalization capacity was discernable in either cell line compared to the previous soluble EGFR-s10.

B1: EGFR-PC10 phage clone (phage-displayed human anti-EGFR scFv) (scFv)
scFv: EVQLVESGGGLVQPGGSLRLSCAASGFNLSSFWMSWVRQAPGKGLEWVANINHDGSDKYYVDSVKGRFSISRDNTKNSVYLQMDSLRGEDTAVYYCAKGKSLYDGSALDMWGQGTMVTVSSGGGGSGGGGSGGGGSDIVMTQSPSTLSASVGDRVTITCRASQTIGRWLAWYQQKPGKAPKLLIYGASSLQSGVPSRFSGSGSGTDFTLTISSLQPEDFATYYCQQSYSTLWTFGQGTKLEIKR
notes: Tested as whole phage particles displaying the scFv, detected with anti-M13 antibody; also called EFGR-PC10 phage; not shown: phage coat protein fusion of the M13 display system; not described
For the molecule B1, the binding result in test [1] is given as “binds”.

B2: EGFR-s10 scFv (soluble scFv generated from phage clone EGFR-PC10) (scFv)
scFv: EVQLVESGGGLVQPGGSLRLSCAASGFNLSSFWMSWVRQAPGKGLEWVANINHDGSDKYYVDSVKGRFSISRDNTKNSVYLQMDSLRGEDTAVYYCAKGKSLYDGSALDMWGQGTMVTVSSGGGGSGGGGSGGGGSDIVMTQSPSTLSASVGDRVTITCRASQTIGRWLAWYQQKPGKAPKLLIYGASSLQSGVPSRFSGSGSGTDFTLTISSLQPEDFATYYCQQSYSTLWTFGQGTKLEIKR
notes: Expressed in E. coli HB2151 from the pFHC vector; also called EGFR-sl0; soluble anti-EGFR human scFv; not shown: flag, 6xHis and cysteine tag from the pFHC vector
On to B2, for which the binding result in test [2] is recorded as “binds”.

B3: EGFR-s10-conjugated ligand-targeting liposomes (LTLs) (other)
scFv: EVQLVESGGGLVQPGGSLRLSCAASGFNLSSFWMSWVRQAPGKGLEWVANINHDGSDKYYVDSVKGRFSISRDNTKNSVYLQMDSLRGEDTAVYYCAKGKSLYDGSALDMWGQGTMVTVSSGGGGSGGGGSGGGGSDIVMTQSPSTLSASVGDRVTITCRASQTIGRWLAWYQQKPGKAPKLLIYGASSLQSGVPSRFSGSGSGTDFTLTISSLQPEDFATYYCQQSYSTLWTFGQGTKLEIKR
modifications: reduced cysteine of the tag conjugated to Maleimide-PEG-DSPE inserted in a PEGylated liposome loaded with doxorubicin or vinorelbine
notes: also called EGFR-s10-LD; EGFR-s10-LV; not shown: flag, 6xHis and cysteine tag from the pFHC vector
For B3, the binding result in test [3] is recorded as “binds”.
